Assay: label from the status in PepcDB records
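Further: failed if final PepcDB status was selected cloned or expressed and not failed if soluble or beyond.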

Row | Sequence | protein production
1 | MSDFNKYCEEAAREALPDSEDEEDIGDEDTCSAQDLAAEFQLKYKPQDEVSVSLQREYVLSLAADQGFSRMAAGLSNSAVHIYNLDSGAGKLENFSYLPPTDSPQSVSICGVRFLDEGPHNILVGTTDGYVRLYDLRLRGEQARFKYTQHPNVPPVPKSLSCFDRNANGRIICCGTEQFHSNAFLVFFDVRERQQMGVYFESHEDDITSLRFHAQNPDLLATGSVDGLVNVFDVKEPDEDEALLNTFNTESSVARLAWHRNVYDKDIISCVTTTGDFKSYECEEGDEVASFERPDVTAAIRRKKAANFNLINAHNQEDGGVFLLAGTNFNKGEILRSVSVTSKNSLQPLANFQGNKQIVRDSLFDSKRSLLFTGGESGIVTVWAQDASGTAFSSEKLKARKEKKSRKQAPY | failed
2 | TNPQAVIGDSPTTSATQSKAVVVEFSDFQCPYCAKAHDTLKQLLAKHPGEITLVYKHLPLIPIHNEAMPAAKAAWAATQQGKFWEYHDALFSNQKQLGEALYLDIAKKLNLDLEKFNSDRLLADAAISKDIQIAQKLAIAGTPFFIMNSKTFSGGIDLSEIENKL | failed
3 | MTITPQQLIALLPLLIVGLTVVVVMLSIAWRRNHFLNATLSVLGLNAALVSLWFVGQNGAMDVTPLIRVDGYAMLYTGLVLLASLATCTFAYPWLEGYKDNKEEFYLLVLIAALGGILLAGANHLAALFLGIELISLPLFGLVGYAFRQKRSLEASIKYTILSAAASSFLLFGMALVYANSGNLSFLALGKSLADNMLHEPLLLAGLGLMIVGLGFKLSLVPFHLWTPDVYQGAPAPVSTFLATASKIAIFGVVMRLFLYMPVGNSEAVRVVLGLIAFASIIFGNLMALSQTNIKRLLGYSSISHLGYLLVALIALQSGEMSMEAVGVYLAGYLFSSLGAFGVVSLMSSPYRGPDADSLFSYRGLFWHRPILSAVMTVMMLSLAGIPMTLGFIGKFYVLAVGVHAHLWWLVAAVVVGSAIGLYYYLRVAVSLYLSAPEQLNRDAPSNWQYSAGGIVVLISALLVLVLGIWPQPLISIVQLATPLM | failed
4 | MPVAKKYFEIRWHGRAGQGAKSASQMLAEAALEAGKYVQAFPEYGAERTGAPMRAFNRIGDEYIRVRSAVENPDVVVVIDETLLSPAIVEGLSEDGILLVNTVKDFEFVRKKTGFNGKICVVDATDIALQEIKRGIPNTPMLGALVRVTGIVPLEAIEKRIEKMFGKKFPQEVIDANKRALRRGYEEVKCSE | not failed
5 | MRRCPLCHSTQTHLLLQDKKRCFYICQTCWLTFADANSHLPPAAEKQRYGRSRIASKQRHLSQFILPLLTQIQQQQNGSLTGLNFGRVLDQTSLETIESAGHTFKQYDPFFAPDHETLKQEYDFICCYRVFEHFQYPIKEWSLLTRLLKPGGWLAISTPLLIDLEGFAKWHYKNNLTHVSFYQRQTFEYLASNSDFELLFAAKDLVLMQKTSLEHHHHHH | not failed
6 | SVDVEFQKAVEDILRKNIKQGKQYAGSDLFDRAFVVAMDPYSGEVLALAGQKLNDKGEFDDYSLGTFTTAYAMGSAVKGSTILGGIMDGAISNKTVFTDQPIALKGTKPKSSWFNRTGAGNRPLDPVGALEISSNSYMYQVAMKMGGAKYVPNGPLRAPLSTFDDMRYYYNQFGLGVKTGIDLPGEQVGYKGDDQTIGKILDFAIGQYDSYTPLQMAQYVSTIANGGSRIAPSMVKEIRNPSTNGDSVGTLATANEPKVLNKIGVSDNDIKTVQKGFYEVTHGSTGTARTVFTSSDYDVAGKTGTADAFYDGPKEGNKMASVWNTTFVGYAPVKKPEIAISVVVPWIYRPYGTDQKTNMKISKEVFDKYFELKKERAESNKDASKVEQPINNKEAAAKAQSEQTEN | failed
7 | MSLSYVKEGLAVLEDGRLIYITPEEFRQLLQGDAILAVYSKTCPHCHRDWPQLIQASKEVDVPIVMFIWGSLIGERELSAARLEMNKAGVEGTPTLVFYKEGRIVDKLVGATPWSLKVEKAREIYGGEGHHHHHH | not failed
8 | MGGGRQILHTLEQDVYFSHAHRVEIPASVTAHLFYQHFGYRPKPGGIYPDDEGLYRLEKFPHESFH | failed
9 | MSLTVQDLHFKNKVNFIGGQYVPSNESDTIDILSPSTGKVIGEIPAGCKADAENALEVAQAAQKAWAKLTARTRQNMLRTFANKIRENKHILAPMLVAEQGKLLSVAEMEVDVTATFIDYGCDNALTIEGDILPSDNQDEKIYIHKVPRGVVVGITAWNFPLALAGRKIGPALITGNTMVLKPTQETPLATTELGRIAKEAGLPDGVLNVINGTGSVVGQTLCESPITKMITMTGSTVAGKQIYKTSAEYMTPVMLELGGKAPMVVMDDADLDKAAEDALWGRFANCGQVCTCVERLYVHASVYDEFMAKFLPLVKGLKVGDPMDADSQMGPKCNQREIDNIDHIVHEAIKQGATVATGGKTATVEGFEGGCWYEPTVLVDVKQDNIVVHEETFGPILPIVKVSSMEQAIEFCNDSIYGLSAYVHTQSFANINQAISDLEVGEVYINRGMGEQHQGFHNGWKQSGFGGEDGKFGLEQYLEKKTVYINEAEGHHHHHH | not failed
10 | MGESGLTNEIDELHEEVTAVSAPGVKPPAQAGRRNIWLKVLISATAFYILLLVALLVTGNPNLFPSLVMVGNFTVPVAYVAFLYERKNFSRLKMPIVSLAFLYGGLVGIIATSFIGPLFITQFNPGDILAVGLVEEFAKILGVVVIARRRRHVLEMDGLILGAAVGMGFAALESTGYAFTAFLISNGSISAVLEVTLFRGLLAPLGHGTWTAILASVLFRESRDCCFRVNLRVIGAYLLVSILHAMWNGLSLVLAPFTGLGLGAIITWALVGFIGLYVLWRRWREAVRLKPVLLPERENV | failed
11 | MSLAADKVDILYLEDDEVDIQSVERVFHKISSLIKIEIAKSGNQALDMLYGRNKENKIHPKLILLDINIPKMNGIEFLKELRDDSSFTDIEVFVLTAAYTSKDKLAFESLNIRGHLIKPLDYGEAIKLFWILQSMEGHHHHHH | not failed
12 | MFNRRIALICLIVATLSACGGKTKEELYAEAVKELDKGNANGAIVLLKNAVEKDQNYFDARYKLAKAYMTVGKFEQAEKEFQKALRQNPSNPEIRLDLAKLYNSINKPDESIAEAKAYLSARAGSADALEVIGTSYGQKKMFDEAEKYLKESLQAEPARASAMLQLAKVYLATKREQEGMGLLNEIVRKDPKNTKAYYLAAFYEGYRGNSEKALEYYQKIMQADPDDANAAFRIGMMHISKGEVDKAERLADDLIRKASKRPEGHQLKGIALYTRKNYDQAITELQGVVKNYQNPGAYYYLGLSYYQRNDLESALSQFRKVIDLNPKHLQARLMSATVLLQQKRTDDAITEAKRVIELDDKNAFAHNVLGSAYIAKGMTDEAVRELNRAIELEPKLVGAHMKKGIVNLARGKRAEGEEELETAVKVAPDVLNSRYLLASYYMRLNKQARAIEVLRAGLRGGKQDAPLYNTMAAAAFADKREKDGILYLQKAREVDQAYLPASFNLASYYISKKDNGRAAGLFNEILKRDPANLKALIGLGAISESEGKAQEAVAYYTKAKATKDPVGYLSLASYYIRKKEAPKALALANEGLKGAPNNAALLELKGGLLAADKKYAEALKVYDELEKVAPTRAIPLKIGALVVTKNIPKAVEQAQKVVAANPKSAAGHLVIASIYESQKDYDRAISAVRSGIAVEPGNLRASMALGGIYEKKRDFARAIAAYDDILRKNPKNIPALFAKGAAFDQSGKKKEAAGIYRAVLKIAPDFVPALNNLAYLAAEGYGNKSEALSLASRANKLQPNNAGVMDTYGYALLINGKRTASVRVLEKAVSLLPNNPAVHYHLAMAYRDMGDRAKASVSVQKSLQYGEFPESAAARKLLAELKR | failed
13 | ALPELRLEQFIITGASKRGWSAWLTAMADDRVIAIVPSVIDVADTSSMLEGLRKRYGGSWPLALWSYQAAEVLQQLGSPAFARLMALMDPMQYLDEPGARLKIPKYLVSASGDDFFAPDHATDYLQRLPGQTSLRVLPNSDHGGVRAHVVTTLVPMVQRIQASL | failed
14 | IFIGNLDPEIDEKLLYDTFSAFGVILQTPKIMRDPDTGNSKGYAFINFASFDASDAAIEAMNGQYLCNRPITVSYAFKKDSKG | not failed
15 | MNKRRNHKTNKAKDSLSDEETKHDVLAQEVEGGDSSSDEDDVNIVLEPSSTYYGGDTSTGDSKGLFVGGTTTRHWQRPGYSSTAEGGIVGSGVSAYSRGGVDLSLVPKPPTDFPGAHVDYSVFENEIDSLEEKPWREKGAELSDYFNYGFTEDTWREYCRRQQMMRLYSQSLMPIRTLDSGGPLHNIDSPNEPSRKVPRGQQNRRLTPAYSTLRNNFDSKFYSDGNESFSSDYVRYSRPEQTDGDDVILTLTKPTSVDES | failed
16 | MDVGVVRPQRTEAGWDGGVAPRAGPTRRREACTAYVQRVAGGSGLPEGSSGSEPGPGRSRERPGDAAGGSGNAGCCACPVVSETGGDWLTDSTNRAFSVPGDFQGRRQAEGKTQKVRVQSTGKVPPFPVMKLQVLVLLMSWFGVLSWVQAEFFTSIGHMTDLIYAEKDLVQSLKEYILAEEAKLSKIKSWASKMEALTSKSAADPEGYLAHPVNAYKLVKRLNTDWPALGDLVLQDAAAGFVANLSVQRQFFPTDEDESGAARALMRLQDTYKLDPDMISRGELPGTKYQAMLSVDDCFGMGRSAYNEGDYYHTVLWMEQVLKQLDAGEEATVTKSLVLDYLSYAVFQLGDLHRAVELTRRLLSLDPSHERAGGNLRYFERLLEEERGKSLSNQTDAGLASQENLYERPVDYLPERDVYESLCRGEGIKMTPRRQKRLFCRYHHGNRVPQLLIAPFKEEDEWDSPHIVRYYDVMSDEEIERIKEIAKPKLARATVRDPKTGVLTVASYRVSKSSWLEEDDDPVVARVNRRMQHITGLTVKTAELLQVANYGMGGQYEPHFDFSRSDERDAFKRLGTGNRVATFLNYMSDVEAGGATVFPDLGAAIWPKKGTAVFWYNLLRSGEGDYRTRHAACPVLVGCKWVSNKWFHERGQEFLRPCGTTEVD | failed
17 | MSNNSKISWTTTTWNVTAGCDPISDGCKNCYARMMAERLKAMGQAKYQNGFIPTIHSECLNEPFGWKGNKLVFVVSMGDLFHKDIPFDFIDKVIEVITKCPQHTFQILTKRAERMYEYFSTHAIPENVWLGVTVENQKVKGRIDYLKKLDAPVRFLSCEPLLEDLGTLDLSDIDWVIVGGESGNRARKVEKDWILNIKSQCDASTSTAFFFKQWGTWGADGVKRSAKENGCLLDGKEYHAYPTPRKIKPLEHHHHHH | not failed
18 | MASESSIDEKKKKAQVTQSNINKNTPQQLTDKDLFGNETTLAVSEEDIQAALDGDEFRVPLNSPVILVQSGNRAPETIMQEEMRKYYTVSTFSGIPDRQKPLTCNKNKDKNENEDVASAENMNWMQALRFVAAKGHQKAIIVYQDMLQTGKYDSALKSTVWSDYKNDKLTDAISLRYLVRFTLVDVATGEWATWSPVNYEYKVLPPLPDKNEASTTDMTEQQIMQLKQKTYKAMVKDLVNRYQLEHHHHHH | failed
19 | MNKQNKQNKFSPEVRERSVRLVQEHRGEYPSLWAAVESIAPKIGCVPSTLLEWVKRSEINNGAREGLTSSERDRLKALERENRELRRANEILKTASAFFAQAELDRVLKKLEHHHHHH | not failed
20 | MACGKGHDIMEVASPYGWKKNPQKVLDFYNQRRRQLFEVYPNKAHKALAELEKHYQVNIITQNVDDLHERAGSSRILHLHGELLSVRSEKDPNLVYRWEKDLNLGDLAKDKSQLRPDIVWFGEAVPLLKEAISLVKQAHLLIIIGTSLQVYPAASLYTHAHKDALIYYIDPKAKNAHLPQNVQCINESAVHAMQDLMPKLIEMAS | failed
21 | MEKYIHSVEDYHRLISYLENNLNYEDSVVNHVIYVIAKTGMRYGEIIGLTNNDTSLDEHYLHTYKRYNTSTWKWTNAKNESSKRYIPIDDKIVAALSNMIKERERINSLLRIKNKEEFLFFHYGLEHGIPSVATVNKALKKILKKLDIEPIITTKGLRHTYGSYLLHNNIDMGVVARILGHKDIQMLIQVYGHTLTEKIDKEFKEVEQIMNRILEHHHHHH | failed
22 | MAEEQEIVDSLSAEVNPDQKVDMEVETATPKAETGDEKREREETEEEENGGESKKQKVGEEEKSGPVKLGPKEFVTSVAMFDYFVKFLHFWPTDLDVNKYEHMVLLDLIKKGHSEPEKKIGGGIKTFQVRTHPMWKSRCFFLVREDDTADDFSFRKCVDQILPLPENMKTPGANGNGHGGGRGGGGGRRGGRGGGRGGRFRR | failed

— a protein production outcome set (Wang et al. 2014)
